In PMC3942289, “Characterization of Ten Heterotetrameric NDP-Dependent Acyl-CoA Synthetases of the Hyperthermophilic Archaeon Pyrococcus furiosus” (Archaea, 2014):

Tests used:
Type in all cases: biochemical, Pyrococcus furiosus
[1] = substrate: CC(=O)SCCNC(=O)CCNC(=O)[C@H](O)C(C)(C)COP(=O)(O)OP(=O)(O)OC[C@H]1O[C@@H](n2cnc3c(N)ncnc32)[C@H](O)[C@@H]1OP(=O)(O)O; experiment: DTNB assay of released CoASH, 96-well; settings: forward reaction, 2 mM ADP, 10 mM K2HPO4, 2 mM MgCl2, pH 7.0, 80°C
Excerpt: DTNB assay of released CoASH, 96-well on ACS1-A

[2] = substrate: Nc1ncnc2c1ncn2[C@@H]1O[C@H](COP(=O)(O)OP(=O)(O)OP(=O)(O)O)[C@@H](O)[C@H]1O; experiment: colorimetric phosphate release, 96-well; settings: reverse reaction (acid + CoA), 20 mM acid substrate, 0.5 mM CoA, 2 mM MgCl2, pH 7.0, 80°C
[3] = substrate: Nc1nc2c(ncn2[C@@H]2O[C@H](COP(=O)(O)OP(=O)(O)OP(=O)(O)O)[C@@H](O)[C@H]2O)c(=O)[nH]1; experiment: colorimetric phosphate release, 96-well; settings: reverse reaction (acid + CoA), 20 mM acid substrate, 0.5 mM CoA, 2 mM MgCl2, pH 7.0, 80°C
[4] = substrate: CC(C)CC(=O)SCCNC(=O)CCNC(=O)[C@H](O)C(C)(C)COP(=O)(O)OP(=O)(O)OC[C@H]1O[C@@H](n2cnc3c(N)ncnc32)[C@H](O)[C@@H]1OP(=O)(O)O; experiment: DTNB assay of released CoASH, 96-well; settings: forward reaction, 2 mM ADP, 10 mM K2HPO4, 2 mM MgCl2, pH 7.0, 80°C
Excerpt: (§1) DTNB assay of released CoASH, 96-well on ACS2-A

[5] = substrate: CC(C)(COP(=O)(O)OP(=O)(O)OC[C@H]1O[C@@H](n2cnc3c(N)ncnc32)[C@H](O)[C@@H]1OP(=O)(O)O)[C@@H](O)C(=O)NCCC(=O)NCCSC(=O)Cc1ccccc1; experiment: DTNB assay of released CoASH, 96-well; settings: forward reaction, 2 mM ADP, 10 mM K2HPO4, 2 mM MgCl2, pH 7.0, 80°C
Excerpt: as §1

[6] = substrate: CC(=O)SCCNC(=O)CCNC(=O)[C@H](O)C(C)(C)COP(=O)(O)OP(=O)(O)OC[C@H]1O[C@@H](n2cnc3c(N)ncnc32)[C@H](O)[C@@H]1OP(=O)(O)O; experiment: DTNB assay of released CoASH, 96-well; settings: forward reaction, 2 mM ADP, 10 mM K2HPO4, 2 mM MgCl2, pH 7.0, 80°C; remark: listed apart in the source
Excerpt: as §1

[7] = substrate: CC(=O)SCCNC(=O)CCNC(=O)[C@H](O)C(C)(C)COP(=O)(O)OP(=O)(O)OC[C@H]1O[C@@H](n2cnc3c(N)ncnc32)[C@H](O)[C@@H]1OP(=O)(O)O; experiment: DTNB assay of released CoASH, 96-well; settings: forward reaction, 2 mM ADP, 10 mM K2HPO4, 2 mM MgCl2, pH 7.0, 80°C; remark: listed apart in the source
Excerpt: DTNB assay of released CoASH, 96-well on ACS3-A

[8] = substrate: CC(=O)SCCNC(=O)CCNC(=O)[C@H](O)C(C)(C)COP(=O)(O)OP(=O)(O)OC[C@H]1O[C@@H](n2cnc3c(N)ncnc32)[C@H](O)[C@@H]1OP(=O)(O)O; experiment: DTNB assay of released CoASH, 96-well; settings: forward reaction, 2 mM ADP, 10 mM K2HPO4, 2 mM MgCl2, pH 7.0, 80°C; remark: listed apart in the source
Excerpt: DTNB assay of released CoASH, 96-well on ACS4-A

B1: ACS1-A (Pyrococcus furiosus DSM 3638) (protein)
chain 1: MSLEALFNPKSVAVIGASAKPGKIGYAIMKNLIEYGYEGKIYPVNIKGGEIEINGRKFKVYKSVLEIPDEVDMAVIVVPAKFVPQVLEECGQKGVKVVPIISSGFGELGEEGKKVEQQLVETARKYGMRILGPNIFGVVYTPAKLNATFGPTDVLPGPLALISQSGALGIALMGWTILEKIGLSAVVSVGNKADIDDADLLEFFKDDENTRAILIYMEGVKDGRRFMEVAKEVSKKKPIIVIKAGRSERGAKAAASHTGSLAGSDKVYSAAFKQSGVLRAYTIGEAFDWARALSNLPEPQGDNVVIITNGGGIGVMATDAAEEEGLHLYDNLEELKIFANHMPPFGSYKNPVDLTGMADGKSYEGAIRDALAHPEMHSIAVLYCQTAVLDPRELAEIVIREYNESGRKKPLVVAIVGGIEAKEAIDMLNENGIPAYPEPERAIKALSALYKWSKWKAKHKEK
chain 2: MKGEALKIIEEVLAQGRTAMVEYEAKQVLKAYGLPVPEEKLAKTLDEALKYAEEIGYPVAMKLMSPQILHKSDAKVVMLNIKSPEELKKKWEEIHENARKYRPDAEIFGVLIAPMLKPGREVIIGVTEDPQFGHAIMFGLGGIFVEILKDVTFRIIPITEKDARKMITEIKAYPILAGARGEEPADIEAIVDMLLKVSKLVDDLKDYIKEMDLNPVFVYRKGEGAVVVDARIILKG
notes: alpha (pET24a) and beta-A (pET21b) coexpressed in E. coli BL21(DE3) pRIL, untagged (stop codons in primers), heat-treated and desalted; alpha2beta2 ~140 kDa; Printed PF1837 primers are identical to those of PF1838 (probable misprint)
Km [1]: 137 ± 91 µM | kcat/Km [1]: 140000 M⁻¹ s⁻¹ | Km [2]: 132 ± 19 µM | kcat/Km [2]: 140000 M⁻¹ s⁻¹ | Km [3]: 223 ± 58 µM | kcat/Km [3]: 10000 M⁻¹ s⁻¹

B2: ACS2-A (Pyrococcus furiosus DSM 3638) (protein)
chain 1: MLDYFFNPRGIAVIGASNDPKKLGYEVFKNLKEYQGGKVYPVNVREEEVQGVKAYKSVKEIPGEVDLAIIVVPKKFVKQTLIECGEKGVKGVVIITAGFGETGEEGKREEKELVEIAHKYGMRIIGPNCVGIMNTHANLNATFITVAKKGNVAFISQSGALGAGIVYKTIKEDIGFSKFISVGNMADLDFADLMEYLADTQEDKAIALYIEGIKDGRRFIEVAKKVTKKKPVIALKAGKSESGSRAAASHTGSLAGSWKIYEAAFKQSGVLVANTIDEMLSMARAFTQPLPKGNRVAIMTNAGGPGVLTADEIDKRGLKLANLEEKTIEELRSFLPPMAAVKNPVDMIASARGEDYYRTAKLLLQDPNVDILIAICVVPTFAGMTPTEHAEGIIRAVKEVNNGKPVLALFMAGYVSEKAKELLEKNGIPTYERPEDVAAAAYALVQQAKNVGGGVNG
chain 2: MKGEALKIIEEVLAQGRTAMVEYEAKQVLKAYGLPVPEEKLAKTLDEALKYAEEIGYPVAMKLMSPQILHKSDAKVVMLNIKSPEELKKKWEEIHENARKYRPDAEIFGVLIAPMLKPGREVIIGVTEDPQFGHAIMFGLGGIFVEILKDVTFRIIPITEKDARKMITEIKAYPILAGARGEEPADIEAIVDMLLKVSKLVDDLKDYIKEMDLNPVFVYRKGEGAVVVDARIILKG
notes: alpha (pET24a) and beta-A (pET21b) coexpressed in E. coli BL21(DE3) pRIL, untagged, heat-treated and desalted; alpha2beta2 ~140 kDa; Printed PF1837 primers identical to PF1838 (probable misprint)
Km [4]: 466 ± 119 µM | kcat/Km [4]: 109000 M⁻¹ s⁻¹ | Km [5]: 3320 ± 1320 µM | kcat/Km [5]: 150000 M⁻¹ s⁻¹ | Km [6]: 350 ± 2 µM | kcat/Km [6]: 114000 M⁻¹ s⁻¹

B3: ACS3-A (Pyrococcus furiosus DSM 3638) (protein)
chain 1: MTVNLDFLFYPKSVAVIGASATPGKVGNAIMKSLAANFNGKVYPVNVKEGEIEINGKKFKVYRSIKEIPDEVDVAVIAVPAKFVPDVIDECGEKGVKGAIVISAGFKEAGRADLEEELVKRARKWGIRVVGPNCLGVTNLENGFDCNFNPPERQARPKFGPIAFMSQSGAFGAAILDWAARHEVGMSKFISLGNMADLDESDFMLYLKDDPKTKVITAYIEGVKDGRKFFNAAKETTKVKPVIILKAGRTEAGAKAAASHTGSLAGSYKIYQAAFEQTGVLAAKSMRQLFNYAKALAMQSPAKGDRVAIVTNGGGAGVMMSDGLLEAGLKLAEFTEETKEKFRKAIEEGLLPEHMSYKNPVDVIGDAPSSRYETAIRYVLEDPNVDIVVVIALFQSPALDEGIVDVMERVKEYGKPIVFVAPGGEYPERMARKIEEKGIPVFETVEDGVDAVYALIKYGKYLAEL
chain 2: MKGEALKIIEEVLAQGRTAMVEYEAKQVLKAYGLPVPEEKLAKTLDEALKYAEEIGYPVAMKLMSPQILHKSDAKVVMLNIKSPEELKKKWEEIHENARKYRPDAEIFGVLIAPMLKPGREVIIGVTEDPQFGHAIMFGLGGIFVEILKDVTFRIIPITEKDARKMITEIKAYPILAGARGEEPADIEAIVDMLLKVSKLVDDLKDYIKEMDLNPVFVYRKGEGAVVVDARIILKG
notes: as for B2
Km [7]: 474 ± 165 µM | kcat/Km [7]: 12000 M⁻¹ s⁻¹

B4: ACS4-A (Pyrococcus furiosus DSM 3638) (protein)
chain 1: MRYFFYPNSVAIFGSFREGAIAREILRNIVEGGFEGKIIPVNPKGGEVEVAGKKFNIKEKLDEPVDVSIIAIPAKLVPELIRGLKGLTKGAVVISAGFSEVGNVELEKELIKAAKEAGIRVIGPNCAGIFGVHAKFYGSFEVRVNPGGLALISQSGAFGGAALAMGNEEGIGFSAFVSYGNAADLDESDFLRFFADDENTRVIGLYIEGVKDGRKFLDALRYAASKKPVIILKAGKSRAGARAAASHTGSLAGSYEIYRAAFRQAGAIEVEEMEELFDAAKAFEMYERAGRRVAIITNSGGPGVLATDKLERLGLEIAKLTEETVEELRSFLPPQCSVKNPVDLIADADYERYKRAIEVVCRDENVDAILVICVPPIFIPSEEIARAVVEANCDKPIIVNFMAGELVREGIKILESKKIKNFPTPERAAKALYWLSLRSSSE
chain 2: MKGEALKIIEEVLAQGRTAMVEYEAKQVLKAYGLPVPEEKLAKTLDEALKYAEEIGYPVAMKLMSPQILHKSDAKVVMLNIKSPEELKKKWEEIHENARKYRPDAEIFGVLIAPMLKPGREVIIGVTEDPQFGHAIMFGLGGIFVEILKDVTFRIIPITEKDARKMITEIKAYPILAGARGEEPADIEAIVDMLLKVSKLVDDLKDYIKEMDLNPVFVYRKGEGAVVVDARIILKG
notes: as for B2
Km [8]: 242 ± 46 µM | kcat/Km [8]: 119000 M⁻¹ s⁻¹
